Source: the supplement of paper PMC9732359
± gives the uncertainty stated by the source.

Assay: protein stability index of a GFP-peptide fusion (yeast GPS) (PSI 1-4); higher = more stable; sorted into four equal gates, so the index is relative within each strain
Settings: doa10∆
Outline: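 Peptides tiling yeast proteins in 17-residue segments were fused downstream of GFP, with Cherry expressed from the same plasmid. As a pooled library in yeast, mid-log cultures grown in leucine-free medium were sorted into four equal gates by GFP/Cherry fluorescence ratio. Gate plasmids were PCR-amplified and Illumina-sequenced, and barcodes linked reads to strains. Each peptide received a protein stability index equal to the sum of each gate's read frequency times its gate number.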
In the case of AAAGAAMIDAGALEEIT [FAS2], the protein stability index is reported as 2.72 ± 0.15.
With AAANNNIKPVEQHHINN [GAL11] the protein stability index was 2.97 ± 0.095.
Sequence AAAQAQSKIDLTKKKNE [SEM1] has a protein stability index of 2.9 ± 0.079.
Sequence AADILCELQVETYGSME [RPN5] has a protein stability index of 3.15 ± 0.1.
Sequence AAELLDKRIVISIDSWP [DIS3] has a protein stability index of 1.61 ± 0.062.
AAEQQSKAFKESSDFGA [SRP54] gave a protein stability index of 2.8 ± 0.057.
For AAFKDIAKRQFKEILTV [RRP40], the protein stability index was 2.27 ± 0.051.
AAIWTLCKTKMVCETDV [RPO21] showed a protein stability index of 1.55 ± 0.059.
AAKKAMYTLSAQDEVFS [ASC1] gave a protein stability index of 2.78 ± 0.071.
AAPAGVAGGVAGGEAGE [RPP1A] gave a protein stability index of 1.91 ± 0.16.
Work on AARKAEKAKSAGTQSSK [RPL24A] yielded a protein stability index of 3.13 ± 0.099.
Work on AARKAEKAKSAGVQGSK [RPL24B] yielded a protein stability index of 3.27 ± 0.087.
In the case of ADAKAFLDSMAQKYASI [FAS2], the protein stability index is reported as 3.07 ± 0.083.
In the case of ADDEKSDEEEVTEMSNN [BRR2], the protein stability index is reported as 3 ± 0.06.
Work on ADEEEEIVDTYQEDIFV [ISW2] yielded a protein stability index of 2.8 ± 0.11.
Work on ADGPTMREITETIAEAK [RPO21] yielded a protein stability index of 3.46 ± 0.074.
ADGSSYMEQGNNKIITL [SKI6] gave a protein stability index of 2.79 ± 0.044.
Sequence ADILCPLLESFITFSLD [IRR1] has a protein stability index of 2.63 ± 0.11.
ADITDGNNTELTKTTVN [YCG1] gave a protein stability index of 3.19 ± 0.078.
Sequence ADKPFTRLTAYQELAYR [YML031W/NDC1] has a protein stability index of 2.52 ± 0.12.
ADLMALENATWTMRIEG [SNF12] showed a protein stability index of 2.94 ± 0.11.
For ADNNDLQESINHVMYTE [ECM29], the protein stability index was 2.66 ± 0.086.
With ADVFTDDDLFETLVLSY [YCG1] the protein stability index was 2.46 ± 0.09.
Sequence AECISLICSIGLHSSEY [ECM29] has a protein stability index of 1.98 ± 0.053.
Work on AEENLKKRIRLPSEERI [YIL149C/MLP2] yielded a protein stability index of 2.89 ± 0.081.
For AEKSFKPPKNKYKVVRR [SEC65], the protein stability index was 2.58 ± 0.18.
AELDPSLRTPIAPKITP [SEC65] showed a protein stability index of 3.06 ± 0.1.
For AELIGLQPIFKGEEAKL [SSN3], the protein stability index was 2.54 ± 0.18.
For AELIPELYSFQQLVDSE [SNF12], the protein stability index was 1.79 ± 0.08.
In the case of AELRPLQFKSIREIDVA [RPS7A], the protein stability index is reported as 2.26 ± 0.093.
Sequence AENMLEELRGQQTEHET [SMC4] has a protein stability index of 3.02 ± 0.13.
Work on AESEAITVTAKQQPTMQ [SWI3] yielded a protein stability index of 3.14 ± 0.083.
In the case of AESEWNGVNVQTLKGVG [RPC37], the protein stability index is reported as 1.23 ± 0.075.
In the case of AFDLDGTGKSQSGSNSG [ROX3], the protein stability index is reported as 3.44 ± 0.25.
AFEELEGSWDRGIPRIS [PRP8] gave a protein stability index of 2.88 ± 0.18.
For AFPKDDRSKPVALTSFL [RPL3], the protein stability index was 2.77 ± 0.1.
In the case of AFSYPRMYEEASGKEVE [RPN2], the protein stability index is reported as 2.66 ± 0.09.
AGFTHKLSNWLFGWNDL [YDL088C/ASM4] gave a protein stability index of 2.69 ± 0.065.
AGGAADCQFWETWLGSQ [PRE2] gave a protein stability index of 3.19 ± 0.18.
AGKQLEDGRTLSDYNIQ [RPS31] showed a protein stability index of 2.81 ± 0.11.

Same assay, conditions: pdr5∆
Sequence AAAGAAMIDAGALEEIT [FAS2] has a protein stability index of 2.96 ± 0.11.
In the case of AAANNNIKPVEQHHINN [GAL11], the protein stability index is reported as 2.67 ± 0.066.
AAAQAQSKIDLTKKKNE [SEM1] gave a protein stability index of 2.83 ± 0.096.
Sequence AADILCELQVETYGSME [RPN5] has a protein stability index of 3.34 ± 0.075.
AAELLDKRIVISIDSWP [DIS3] gave a protein stability index of 1.87 ± 0.09.
AAEQQSKAFKESSDFGA [SRP54] showed a protein stability index of 2.3 ± 0.049.
Sequence AAFKDIAKRQFKEILTV [RRP40] has a protein stability index of 2.54 ± 0.062.
AAIWTLCKTKMVCETDV [RPO21] gave a protein stability index of 1.69 ± 0.057.
Work on AAKKAMYTLSAQDEVFS [ASC1] yielded a protein stability index of 2.6 ± 0.063.
Work on AAPAGVAGGVAGGEAGE [RPP1A] yielded a protein stability index of 1.8 ± 0.18.
AARKAEKAKSAGTQSSK [RPL24A] gave a protein stability index of 3.11 ± 0.068.
AARKAEKAKSAGVQGSK [RPL24B] gave a protein stability index of 3.11 ± 0.068.
ADAKAFLDSMAQKYASI [FAS2] gave a protein stability index of 3.19 ± 0.086.
With ADDEKSDEEEVTEMSNN [BRR2] the protein stability index was 3.02 ± 0.042.
ADEEEEIVDTYQEDIFV [ISW2] gave a protein stability index of 2.67 ± 0.12.
With ADGLLQVLVCTATLAWG [BRR2] the protein stability index was 1.77 ± 0.28.
Work on ADGPTMREITETIAEAK [RPO21] yielded a protein stability index of 3.45 ± 0.055.
Sequence ADGSSYMEQGNNKIITL [SKI6] has a protein stability index of 3.07 ± 0.059.
With ADILCPLLESFITFSLD [IRR1] the protein stability index was 2.32 ± 0.081.
With ADITDGNNTELTKTTVN [YCG1] the protein stability index was 3.22 ± 0.068.
Sequence ADKPFTRLTAYQELAYR [YML031W/NDC1] has a protein stability index of 3.17 ± 0.11.
For ADLMALENATWTMRIEG [SNF12], the protein stability index was 3.05 ± 0.13.
Work on ADNNDLQESINHVMYTE [ECM29] yielded a protein stability index of 3.02 ± 0.096.
With ADVFTDDDLFETLVLSY [YCG1] the protein stability index was 2.65 ± 0.056.
In the case of AECISLICSIGLHSSEY [ECM29], the protein stability index is reported as 2.38 ± 0.051.
AEENLKKRIRLPSEERI [YIL149C/MLP2] showed a protein stability index of 2.48 ± 0.066.
For AEKSFKPPKNKYKVVRR [SEC65], the protein stability index was 3 ± 0.17.
AELDPSLRTPIAPKITP [SEC65] showed a protein stability index of 3.05 ± 0.058.
With AELIGLQPIFKGEEAKL [SSN3] the protein stability index was 1.57 ± 0.16.
AELIPELYSFQQLVDSE [SNF12] showed a protein stability index of 2.12 ± 0.067.
Sequence AELRPLQFKSIREIDVA [RPS7A] has a protein stability index of 1.67 ± 0.1.
Work on AENMLEELRGQQTEHET [SMC4] yielded a protein stability index of 2.97 ± 0.2.
AESEAITVTAKQQPTMQ [SWI3] gave a protein stability index of 3.22 ± 0.063.
AESEWNGVNVQTLKGVG [RPC37] showed a protein stability index of 1.79 ± 0.14.
For AFDLDGTGKSQSGSNSG [ROX3], the protein stability index was 2.71 ± 0.2.
AFEELEGSWDRGIPRIS [PRP8] gave a protein stability index of 3.36 ± 0.19.
For AFPKDDRSKPVALTSFL [RPL3], the protein stability index was 2.75 ± 0.083.
Sequence AFSYPRMYEEASGKEVE [RPN2] has a protein stability index of 1.34 ± 0.082.
Work on AGFTHKLSNWLFGWNDL [YDL088C/ASM4] yielded a protein stability index of 3.06 ± 0.059.
With AGGAADCQFWETWLGSQ [PRE2] the protein stability index was 3.19 ± 0.15.
